Biological target: T1, HA-tagged HNF4 (hepatocyte nuclear factor 4) (UniProt P41235 1-474)
T1 sequence (looked up): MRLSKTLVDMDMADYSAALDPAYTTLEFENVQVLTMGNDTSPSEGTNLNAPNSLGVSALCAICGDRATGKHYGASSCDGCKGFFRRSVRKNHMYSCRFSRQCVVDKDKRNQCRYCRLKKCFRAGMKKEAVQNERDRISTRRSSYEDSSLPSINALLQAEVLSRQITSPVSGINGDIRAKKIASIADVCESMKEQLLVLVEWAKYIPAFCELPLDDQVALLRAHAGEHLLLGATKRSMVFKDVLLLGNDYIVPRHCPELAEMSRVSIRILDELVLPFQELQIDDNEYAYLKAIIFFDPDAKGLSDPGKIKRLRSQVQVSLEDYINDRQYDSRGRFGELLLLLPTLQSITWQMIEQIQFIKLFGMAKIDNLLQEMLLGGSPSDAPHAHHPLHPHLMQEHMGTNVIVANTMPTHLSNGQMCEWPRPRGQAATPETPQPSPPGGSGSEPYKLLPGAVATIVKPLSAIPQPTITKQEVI
Experiment: cell-based or functional assay

luciferase activity of pGL2/MTP-Luc(-611/+87) in HuH7 cells, HA-HNF4 with increasing HA-DDX3 against HA-HNF4 alone (2.4- to 8.9-fold, DDX3 dose-dependent): 8.9 fold
B1: HA-tagged DDX3 (natural protein, UniProt O00571 1-662, looked up)
chain: MSHVAVENALGLDQQFAGLDLNSSDNQSGGSTASKGRYIPPHLRNREATKGFYDKDSSGWSSSKDKDAYSSFGSRSDSRGKSSFFSDRGSGSRGRFDDRGRSDYDGIGSRGDRSGFGKFERGGNSRWCDKSDEDDWSKPLPPSERLEQELFSGGNTGINFEKYDDIPVEATGNNCPPHIESFSDVEMGEIIMGNIELTRYTRPTPVQKHAIPIIKEKRDLMACAQTGSGKTAAFLLPILSQIYSDGPGEALRAMKENGRYGRRKQYPISLVLAPTRELAVQIYEEARKFSYRSRVRPCVVYGGADIGQQIRDLERGCHLLVATPGRLVDMMERGKIGLDFCKYLVLDEADRMLDMGFEPQIRRIVEQDTMPPKGVRHTMMFSATFPKEIQMLARDFLDEYIFLAVGRVGSTSENITQKVVWVEESDKRSFLLDLLNATGKDSLTLVFVETKKGADSLEDFLYHEGYACTSIHGDRSQRDREEALHQFRSGKSPILVATAVAARGLDISNVKHVINFDLPSDIEEYVHRIGRTGRVGNLGLATSFFNERNINITKDLLDLLVEAKQEVPSWLENMAYEHHYKGSSRGRSKSSRFSGGFGARDYRQSSGASSSSFSSSRASSSRSGGGGHGSSRGFGGGGYGGFYNSDGYGGNYNSQGVDWWGN
